We go through 3 molecules from paper PMC8913699, “Overall structure of fully assembled cyanobacterial KaiABC circadian clock complex by an integrated experimental-computational approach” (Communications Biology, 2022).

B1: KaiA from Synechococcus sp. PCC 7942 (natural protein)
chain: LSQIAICIWVESTAILQDCQRALSADRYQLQVCESGEMLLEYAQTHRDQIDCLILVAANPSFRAVVQQLCFEGVVVPAIVVGDRDSEDPDEPAKEQLYHSAELHLGIHQLEQLPYQVDAALAEFLRLAPVETMADHIMLMGANHDPELSSQQRDLAQRLQERLGYLGVYYKRDPDRFLRNLPAYESQKLHQAMQTSYREIVLSYFSPNSNLNQSIDNFVNMAFFADVPVTKVVEIHMELMDEFAKKLRVEGRSEDILLDYRLTLIDVIAHLCEMYRRSIPRET
notes: KaiA, Synechococcus sp; PCC 7942; Both N- and C-terminal domains were present in the sample, since the study locates the N-terminal domains, so it was probably whole KaiA; Hydrogenated in all samples; also called A2 (homodimer); hA (hydrogenated KaiA); source: E. coli, purified after cleavage of the his-tag
B2: phosphorylation mimic KaiC (S431 substituted with aspartate) from Synechococcus sp. PCC 7942 (natural protein)
chain: MTSAEMTSPNNNSEHQAIAKMRTMIEGFDDISHGGLPIGRSTLVSGTSGTGKTLFSIQFLYNGIIEFDEPGVFVTFEETPQDIIKNARSFGWDLAKLVDEGKLFILDASPDPEGQEVVGGFDLSALIERINYAIQKYRARRVSIDSVTSVFQQYDASSVVRRELFRLVARLKQIGATTVMTTERIEEYGPIARYGVEEFVSDNVVILRNVLEGERRRRTLEILKLRGTSHMKGEYPFTITDHGINIFPLGAMRLTQRSSNVRVSSGVVRLDEMCGGGFFKDSIILATGATGTGKTLLVSRFVENACANKERAILFAYEESRAQLLRNAYSWGMDFEEMERQNLLKIVCAYPESAGLEDHLQIIKSEINDFKPARIAIDSLSALARGVSNNAFRQFVIGVTGYAKQEEITGLFTNTSDQFMGAHSITDSHIDTITDTIILLQYVEIRGEMSRAINVFKMRGSWHDKAIREFMISDKGPDIKDSFRNFERIISGSPTRITVDEKSELSRIVRGVQEKGPES
notes: KaiC, Synechococcus sp; PCC 7942, phosphorylation mimic with S431 replaced by aspartate; A 75%-deuterated form (dC) was used in the iCM-SANS sample; Buffer contained 1 mM ATP and 5 mM MgCl2; also called C6 (homohexamer); hC; source: E. coli, purified as a Strep-tagged recombinant protein

Data set [1] concerns the target T1, B6C6 complex (KaiB-KaiC complex formed beforehand and isolated by SEC) (Synechococcus sp. PCC 7942, UniProt Q79PF5 1-102; Q79PF4 1-519, S431 substituted with an aspartate residue).
T1 construct: KaiB, Synechococcus sp; PCC 7942, as m2; KaiC, Synechococcus sp; PCC 7942, phosphorylation mimic with S431 replaced by aspartate, as m3; Oversaturating KaiA was added to this purified complex; the final molar ratio [KaiA]:[KaiB]:[KaiC] was 24:12:6; In the iCM-SANS sample both chains were 75%-deuterated; also called BC complex; B6C6 subcomplex; source: E. coli proteins, purified; KaiB and KaiC …
T1 sequence 1: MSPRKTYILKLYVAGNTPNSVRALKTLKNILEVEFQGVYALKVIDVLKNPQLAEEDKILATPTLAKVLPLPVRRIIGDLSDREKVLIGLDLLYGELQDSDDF
T1 sequence 2: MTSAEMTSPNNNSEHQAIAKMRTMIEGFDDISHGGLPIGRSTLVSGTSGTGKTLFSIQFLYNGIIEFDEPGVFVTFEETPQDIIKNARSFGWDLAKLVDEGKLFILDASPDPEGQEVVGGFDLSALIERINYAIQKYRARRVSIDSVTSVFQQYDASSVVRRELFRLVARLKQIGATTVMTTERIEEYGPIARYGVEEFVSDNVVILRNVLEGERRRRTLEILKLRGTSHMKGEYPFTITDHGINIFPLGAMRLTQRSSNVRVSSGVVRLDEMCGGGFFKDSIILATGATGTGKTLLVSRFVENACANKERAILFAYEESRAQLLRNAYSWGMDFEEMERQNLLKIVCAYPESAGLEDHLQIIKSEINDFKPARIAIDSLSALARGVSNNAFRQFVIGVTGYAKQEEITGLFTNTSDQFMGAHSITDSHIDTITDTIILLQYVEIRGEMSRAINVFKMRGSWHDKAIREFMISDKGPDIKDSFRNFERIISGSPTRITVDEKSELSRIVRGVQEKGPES
The data set can be described thus: AUC; sedimentation velocity, Rayleigh interference optics, 60,000 rpm, 30 °C; ternary KaiA-KaiB-KaiC mixture 1.0 mg/mL (KaiA added in excess to SEC-purified B6C6, final 24:12:6); hydrogenated proteins in H2O buffer: 20 mM Tris-HCl pH 8.0, 150 mM NaCl, 5 mM MgCl2, 0.5 mM EDTA, 1 mM DTT, 1 mM ATP. The conditions noted are these: both partners purified.

Data set [2] deals with the molecule itself. The data set can be described thus: AUC-SAXS; KaiA alone, 1.0 mg/mL, 25 °C; SV-AUC at 60,000 rpm with laboratory SAXS (NANOPIX); experimental profile compared with the crystal dimer and with simulated dimers.
Data set [3] concerns the molecule itself. The data set can be described thus: AUC; sedimentation velocity, Rayleigh interference optics, 60,000 rpm, 30 °C; ternary KaiA-KaiB-KaiC mixture 1.0 mg/mL (KaiA added in excess to SEC-purified B6C6, final 24:12:6); hydrogenated proteins in H2O buffer: 20 mM Tris-HCl pH 8.0, 150 mM NaCl, 5 mM MgCl2, 0.5 mM EDTA, 1 mM DTT, 1 mM ATP.
Data set [4] concerns the target B1. Described as above. Particulars: both partners purified.
The target of data set [5] is B2. The data set can be described thus: SEC; KaiB and KaiC mixed 9:6 in 20 mM Tris-HCl pH 8.0, 150 mM NaCl, 5 mM MgCl2, 0.5 mM EDTA, 1 mM DTT, 1 mM ATP at 10 °C; complex isolated with SEC. The conditions noted are these: both partners purified.

As for B1, the entries for the “stoichiometry N” value in data set [1] and in data set [2] were 12 KaiA protomers per B6C6 complex and 2, respectively. For the molecule B2, in data set [3], the “stoichiometry N” value was found to be 6.

B3: KaiB from Synechococcus sp. PCC 7942 (natural protein, UniProt Q79PF5 1-102, looked up)
chain: MSPRKTYILKLYVAGNTPNSVRALKTLKNILEVEFQGVYALKVIDVLKNPQLAEEDKILATPTLAKVLPLPVRRIIGDLSDREKVLIGLDLLYGELQDSDDF
notes: KaiB, Synechococcus sp; PCC 7942; A 75%-deuterated form (dB) was used in the iCM-SANS sample; also called B4 (homotetramer); hB; source: E. coli, purified after cleavage of the GST-tag
Take B3: the binding result in data set [4] and in data set [5] was “binds” throughout.

What is called stoichiometry N is the number of molecules, sites or subunits per partner or assembly.
